Here are results for 15 substances from patent publication US20200283475A1.

The Kd is the constant that tells how readily two partners part at equilibrium. As a reminder, the kon is a measure of how fast the partners come together. Low readings indicate slow association, high ones fast association. As a reminder, the koff is the rate constant with which the complex falls apart. The low end stands for a long-lived complex, the high end for a short-lived complex.

For assay [1], the target named is human polyclonal IgG (Gammanorm) (human). The assay is described as follows: column breakthrough, 1.0 M NaOH; ratio to reference Zvar4.
The target is the same in assay [2]. Description: column breakthrough, ligand 9.7 mg/ml; after 24 h 1.0 M NaOH.
Assay [3] has the same target. Description: column breakthrough, agarose beads, ligand 9.7 mg/ml, 6 min residence.
Assay [4] has the same target. Described as above. This is another data set of the same source.
The target is the same in assay [5]. Description: column breakthrough; ratio to reference Zvar4.
Assay [6] has the same target. Description: column breakthrough, ligand 9.7 mg/ml; after 24 h 0.5 M NaOH.
The target is the same in assay [7]. Description: SPR, ligand on chip; CIP cycles 0.5 M NaOH. On the technique in general: In SPR one partner is held on a chip, and binding of the other changes the refractive index at the surface.
Assay [8] has the same target. Description: SPR, 1 M NaOH; ratio to reference Zvar4.
For assay [9] the target is unchanged. Description: SPR; ratio to reference Zvar4.
Assay [10] has the same target. Description: SPR, ligand on chip; CIP cycles 1 M NaOH.
For assay [11] the target is unchanged. Description: column breakthrough, agarose beads, ligand […], 6 min residence.
The target is the same in assay [12]. The assay is described as follows: column breakthrough, ligand […]; after 24 h 0.5 M NaOH.
Assay [13] shares this target. Description: column breakthrough, agarose beads, ligand 7.0 mg/ml, 6 min residence.
Assay [14] shares this target. The assay is described as follows: column breakthrough, ligand 7.0 mg/ml; after 24 h 0.5 M NaOH.
For assay [15] the target is unchanged. The assay is described as follows: SPR; ratio of remaining capacity to reference Zvar1.
Assay [16] addresses IgG1 monoclonal antibody (probe molecule in the Biacore kinetics). Description: SPR (Biacore), ligand on CM5 chip, IgG1 mAb as probe.
Assay [17] has the same target. Description: SPR (Biacore), ligand on CM5 chip, IgG1 mAb as probe; exponent read as 10^-5.
Assay [18] deals with human polyclonal IgG (Gammanorm) (human). The assay is described as follows: SPR, ligand on chip; signal left after 96-100 CIP cycles 0.5 M NaOH.
Assay [19] shares this target. Description: SPR; ratio to reference Zvar2.
For assay [20] the target is unchanged. Description: column breakthrough, agarose beads, ligand 7.2 mg/ml, 6 min residence.
The target is the same in assay [21]. Description: column breakthrough, ligand 7.2 mg/ml; after 24 h 0.5 M NaOH.
Assay [22] shares this target. The assay is described as follows: column breakthrough, agarose beads, ligand […], 6 min residence. This is another data set of the same source.
The target is the same in assay [23]. The assay is described as follows: column breakthrough, ligand […]; after 24 h 1.0 M NaOH.
Assay [24] shares this target. The assay is described as follows: pH 6-3 citrate gradient elution; hexamer SEQ ID NO 33 on agarose; peak 1.
Assay [25] has the same target. The assay is described as follows: SPR; ratio to reference (the text names Zvar6).
Assay [26] has the same target. Description: pH 6-3 citrate gradient elution; hexamer SEQ ID NO 33 on agarose; peak 2.
Assay [27] has the same target. Description: column breakthrough, ligand 10.8 mg/ml; after 24 h 0.5 M NaOH.
Assay [28] shares this target. The assay is described as follows: column breakthrough, agarose beads, ligand 10.8 mg/ml, 6 min residence.

As for “Zvar(N11K,H18K,S33K,D37E,A42R,N43A,L44I,K50R,L51Y)4 with an additional N-terminal cysteine (designed binder)”, the values for the Capacity retention relative to ref. after six 4 h cycles in assay [1] and in assay [5] were 1.44 and 1.53, respectively. In addition, the Remaining IgG capacity Qb10 after six 4 h cycles in [2] is 48.1 mg/mL; in assay [6], 52 mg/mL. Moreover, the Remaining IgG capacity after six 4 h cycles (%) in assay [2] came to 77%; in assay [6], 92%. In addition, the values for the Initial IgG capacity Qb10 in assay [3] and in assay [4] were 56.3 mg/mL and 62.1 mg/mL, respectively.

In assay [7], “Zvar(Q9A,N11E,N28A,N43A)4 (designed binder)” registered a Remaining capacity 100 cycles (%) of 80%, a Remaining capacity 200 cycles (%) of 62% and a Remaining capacity 300 cycles (%) of 42%. Also, the Capacity relative to ref. 100 cycles in assay [8] stood at 2.04. In assay [9], the Capacity relative to ref. 100 cycles was 1.19, the Capacity relative to ref. 200 cycles is 1.72 and the Capacity relative to ref. 300 cycles is 2.62. For the same substance, in [10], the Remaining capacity 100 cycles (%) was 55%.

In the case of “Zvar(Q9A,N11E,N28A,N43A)4 with an additional N-terminal cysteine (designed binder)”, the Initial IgG capacity Qb10 in [11] was determined as 50 mg/mL; in assay [13], 49.1 mg/mL. The Remaining IgG capacity Qb10 after six 4 h cycles in [12] was 46.2 mg/mL; in assay [14], 44.1 mg/mL. The figures for the Remaining IgG capacity after six 4 h cycles (%) in assay [12] and in assay [14] were 93% and 90%, respectively.

Consider “Zvar(Q9A,N11E,Q40V,A42K,N43A,L44I)1 (designed binder)”, for which the Capacity relative to reference in assay [15] was found to be 1.4. Moreover, in assay [16], the Kd came to 1.07 nM and the kon was 410000 M⁻¹ s⁻¹. In addition, the koff in assay [17] turned out to be 0.000437 s⁻¹. In [18], this substance displayed a Capacity after 96-100 cycles of 66%.

Consider “Zvar(Q9A,N11E,Q40V,A42K,N43A,L44I)2 with K4, F5, D6, K7 and E8 in linker deleted (designed binder)”, for which the Capacity relative to ref. 100 cycles in [19] came to 1.3. In addition, the Remaining capacity 100 cycles (%) in assay [7] was found to be 70%.

For the substance “Zvar(Q9A,N11E,Q40V,A42K,N43A,L44I)2 with K58, V1 and D2 in linker deleted (designed binder)”, the Capacity relative to ref. 100 cycles in [19] worked out at 1.38. Also, the Remaining capacity 100 cycles (%) in assay [7] worked out at 76%.

“Zvar(Q9A,N11E,Q40V,A42K,N43A,L44I)2 with P57, K58, V1, D2 and A3 in linker deleted (designed binder)”: in assay [19], the Capacity relative to ref. 100 cycles came to 1.35. For the same substance, the Remaining capacity 100 cycles (%) in [7] is 74%.

For the substance “Zvar(Q9A,N11E,Q40V,A42K,N43A,L44I)2 with V1, D2 and A3 in linker deleted (designed binder)”, the Capacity relative to ref. 100 cycles in [19] worked out at 1.39. In assay [7], this substance returned a Remaining capacity 100 cycles (%) of 75%.

With “Zvar(Q9A,N11E,Q40V,A42K,N43A,L44I)2 with V1, D2, A3, K4, F5, D6, K7 and E8 in linker deleted (designed binder)”, the Capacity relative to ref. 100 cycles in assay [19] was 1.13. Besides, in assay [7], the Remaining capacity 100 cycles (%) is 62%.

For “Zvar(Q9A,N11E,Q40V,A42K,N43A,L44I)2 with YEDG inserted in linker between K58 and V1 (designed binder)”, in assay [19], the Capacity relative to ref. 100 cycles was 1.31. The Remaining capacity 100 cycles (%) in assay [7] was 72%.

In assay [7], “Zvar(Q9A,N11E,Q40V,A42K,N43A,L44I)4 (designed binder)” returned a Remaining capacity 100 cycles (%) of 90%, a Remaining capacity 200 cycles (%) of 74% and a Remaining capacity 300 cycles (%) of 57%. Moreover, the Capacity relative to ref. 100 cycles in assay [8] is 2.07. Moreover, in assay [9], the Capacity relative to ref. 100 cycles is 1.34, the Capacity relative to ref. 200 cycles is 2.06 and the Capacity relative to ref. 300 cycles is 3.56. The Remaining capacity 100 cycles (%) in assay [10] was found to be 56%.

For “Zvar(Q9A,N11E,Q40V,A42K,N43A,L44I)4 with an additional N-terminal cysteine (designed binder)”, the figures for the Initial IgG capacity Qb10 in assay [20], in assay [11] and in assay [22] were 49 mg/mL, 56.3 mg/mL and 60.3 mg/mL, respectively. In addition, the Capacity retention relative to ref. after six 4 h cycles turned out to be 1.67 in assay [1] and 1.5 in [5] (ligand content 7.2 mg/ml). Further, the values for the Remaining IgG capacity Qb10 after six 4 h cycles in assay [21], in [12] and in assay [23] were 44.2 mg/mL, 53.6 mg/mL and 56 mg/mL, respectively. In addition, the Remaining IgG capacity after six 4 h cycles (%) stood at 90% in assay [21], 95% in [12] and 93% in assay [23].

Turning to “Zvar(Q9A,N11E,Q40V,A42K,N43A,L44I)6 (designed binder)”, the Elution pH in [24] was 4.24 pH; in [26], 3.81 pH. This substance also had a Remaining capacity 100 cycles (%) in [7] of 87%. The Capacity relative to ref. 100 cycles in [25] turned out to be 1.3.

In [7], “Zvar(Q9A,N11E,Q40V,A42K,N43E,L44I)4 (designed binder)” showed a Remaining capacity 100 cycles (%) of 84%, a Remaining capacity 200 cycles (%) of 65% and a Remaining capacity 300 cycles (%) of 48%. In addition, the Capacity relative to ref. 100 cycles in assay [8] worked out at 2. Further, in assay [9], the Capacity relative to ref. 100 cycles stood at 1.25, the Capacity relative to ref. 200 cycles was 1.81 and the Capacity relative to ref. 300 cycles worked out at 3. Further, in assay [10], the Remaining capacity 100 cycles (%) amounted to 54%.

In [27], “Zvar(Q9A,N11K,H18K,D37E,A42R)4 with an additional N-terminal cysteine (designed binder)” returned a Remaining IgG capacity Qb10 after six 4 h cycles of 52.5 mg/mL and a Remaining IgG capacity after six 4 h cycles (%) of 92%. In [28], the Initial IgG capacity Qb10 was found to be 56.9 mg/mL. For the same substance, in assay [5], the Capacity retention relative to ref. after six 4 h cycles was determined as 1.3.
